Assay results as given in PMC11357992, “Non-invasive mapping of systemic neutrophil dynamics upon cardiovascular injury” (Nature Cardiovascular Research, 2023).
Several values for one entry are separate records, joined by “and”; a condition that tells them apart may be missing. Equal values may be shown once. Where no end group is shown, it is not given here.

Test: Liver serum markers after PFC injection
Assay type: in vivo, mouse
Parameters: serum level of ALP (alkaline phosphatase) / serum level of ALT (alanine aminotransferase) / serum level of GLDH (glutamate dehydrogenase) / serum level of AST (aspartate aminotransferase): unit not given here
Conditions: 1 mM per kg BW i.v. over 3 consecutive days, blood 24 h after last injection; individual mice
Protocol: ^ConPFCs, ^mNPPFCs (each at 1 mM per kg BW) or saline were injected i.v. over 3 consecutive days. Twenty-four hours after the last injection, mice were killed, and blood samples were withdrawn to determine GLDH, AST, ALP, ALT and bilirubin levels by standard clinical procedures. Furthermore, the liver and spleen were dissected, fixed in formalin and snap frozen. Subsequently, 4-µm cryosections were cut and stained with hematoxylin and eosin as described previously.
Extended Data Fig. 3 Assessment of ^mNPPFC/^ConPFC biodistribution, liver serum markers and histology of liver and spleen. a, Biodistribution of intravenously injected ^mNPPFCs was determined via ^19F MRI measurements at distinct time points after injection (1, 3, 6 and 24 h after injection). Shown are quantification of fluorine signal intensities in the blood, liver and spleen indicating a fast wash-out from the blood accompanied by a strong influx into the liver while signal intensities in the spleen were constant over the entire observation period; a.u. = arbitrary units. b, Serum levels of GLDH (glutamate dehydrogenase), AST (aspartate aminotransferase), ALP (alkaline phosphatase), ALT (alanine aminotransferase) and bilirubin after intravenous application of NaCl as control, ^ConPFCs or ^mNPPFCs. c + d, 4 µm sections of liver (C) and spleen (D) stained with hematoxylin and eosin. Organs were excised and processed for histology 24 h post injection of NaCl (upper row), ^ConPFCs (middle), ^mNPPFCs (lower). Representative liver/spleen images of organs from three different animals are shown. Scale bars indicate 100 µm. Data are mean values ± SD of n = 6 (a), n = 4-6 (b) and n = 6 (c + d) independent experiments. Source data

Substance | serum level of ALP (alkaline phosphatase) | serum level of ALT (alanine aminotransferase) | serum level of AST (aspartate aminotransferase) | serum level of GLDH (glutamate dehydrogenase)
SLAMFLTHSPEP-GGG-C [Con, reference compound] | 5.7 and 16.2 and 33.5 and 13.2 and 6.6 and 3.4 | 1.6 and 0.9 and 0.6 and 0.8 and 1.3 | 0.4 and 2 and 3.4 and 0.6 and 3.1 and 2.6 | 1.19 and 1.21 and 2.18 and 0.14
DFYKPMPNLRITGGGC [mNP] | 4.3 and 4.6 and 15.5 and 19.1 and 10.5 and 11.8 | 0.1 and 1 and 0.8 | 1.5 and 6.8 and 1.6 and 1.4 and 2.5 and 2.3 | 0.89 and 1.11 and 3.48 and 0.9 and 0.22 and 0.33
